# Measured values published in paper PMC11251166.
# pKd: −log10 of the molar value.
# Target: ADP-ribosylated ubiquitin (ADPR-Ub) (UniProt P0CG48)
# Assay: ITC
substance,measurement,value
MavL_N322A,pKd,5.22
